In patent US20180051053A1:

Molecular target: Protein G (Protein G UltraLink resin, Pierce) (group G streptococci) (UniProt P19909)
Experiment: depletion of 100 µg IgG by Protein G resin beads (10 µL suspension); supernatant read by SDS-PAGE band pixels

Work on IgG (antibody) yielded a remaining antibody amount (unbound IgG left in supernatant) of 3%.
